Reference: the supplement of paper PMC7877785
± gives the uncertainty stated by the source.

Assay: self-splicing fitness, log relative to wild type (ln ratio); higher = more splicing; Tetrahymena group I intron in knt gene, E. coli kanamycin selection, DiMSum; sequences stand for … in CUCUCU…GGAGGGAAAAGUUAUCAGGCAUGCACCUGGUAGCUAGUCUUUAAACCAAUAGAUUGCAUCGGUUUAAAAGGCAAGACCGUCAAAUUGCGGGAAAGGGGUCAACAGCCGUUCAGUACCAAGUCUCAGGGGAAACUUUGAGAUGGCCUUGCAAAGGGUAUGGUAAUAAGCUGACGGACAUGGUCCUAACCACGCAGCCAAGUCCUAAGUCAACAGAUCUUCUGUUGAUAUGGAUGCAGUUCACAGACUAAAUGUCGGUCGGGGAAGAUGUAUUCUUCUCAUAAGAUAUAGUCGGACCUCUCCUUAAUGGGAGCUAGCGGAUGAAGUGAUGCAACACUGGAGCCGCUGGGAACUAAUUUGUAUGCGAAAGUAUAUUGAUUAGUUUUGGAGUACUCGUGGUCG
Outline: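 Six replicate transformations of E. coli BL21(DE3) with a pET-22b(+) library were grown overnight at 37°C or 30°C. The library randomised all eight P1ex-region intron nucleotides, the intron lying in the knt kanamycin-resistance gene, and plates were LB agar with or without 25 μg/mL kanamycin plus 100 μg/mL carbenicillin, 50 μM IPTG and 0.2% rhamnose. Pooled colonies were amplicon-sequenced on an Illumina HiSeq 2500, and fitness is the DiMSum error-weighted combination of wild-type-normalised replicate fold changes, kanamycin versus none.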

| Sequence | self-splicing fitness (ln) (30 °C) | self-splicing fitness (ln) (37 °C) |
| --- | --- | --- |
| UGCCAGCAAUAUUACGGCUU | -0.887 ± 0.098 | -0.247 ± 0.11 |
| UGCCAGCAAUAUUACGGGCC | -3.23 ± 0.21 | -1.73 ± 0.2 |
| UGCCAGCAAUAUUACGGUUC | -3.35 ± 0.2 | -1.81 ± 0.14 |
| UGCCAGCAAUAUUACGGUUU | -0.471 ± 0.075 | -0.237 ± 0.096 |
| UGCCAGCAAUAUUACGUAGG | -3.34 ± 0.25 | -0.145 ± 0.17 |
| UGCCAGCAAUAUUACGUCCC | -2.89 ± 0.31 | -1.71 ± 0.43 |
| UGCCAGCAAUAUUACGUCUG | -2.57 ± 0.15 | -1.48 ± 0.16 |
| UGCCAGCAAUAUUACGUGAC | -3.43 ± 0.16 | -3.2 ± 0.22 |
| UGCCAGCAAUAUUACGUGUC | -3.01 ± 0.19 | -1.04 ± 0.13 |
| UGCCAGCAAUAUUACGUUAU | -3.98 ± 0.2 | -0.982 ± 0.12 |
| UGCCAGCAAUAUUACGUUCA | -0.171 ± 0.059 | -0.0317 ± 0.089 |
| UGCCAGCAAUAUUACGUUCG | -0.361 ± 0.07 | 0.136 ± 0.089 |
| UGCCAGCAAUAUUACGUUGG | -3.91 ± 0.18 | -2.22 ± 0.15 |
| UGCGAGCAAUAUUACGAAAA | -1.24 ± 0.27 | – |
| UGCGAGCAAUAUUACGAAUG | -2.77 ± 0.18 | -2.43 ± 0.23 |
| UGCGAGCAAUAUUACGACAU | -3.628 ± 0.028 | -2.26 ± 0.039 |
| UGCGAGCAAUAUUACGACCU | -0.697 ± 0.18 | -0.146 ± 0.2 |
| UGCGAGCAAUAUUACGACGA | -1.13 ± 0.13 | -0.458 ± 0.13 |
| UGCGAGCAAUAUUACGAGGU | -1.68 ± 0.19 | -2.24 ± 0.28 |
| UGCGAGCAAUAUUACGCAAG | -2.27 ± 0.27 | – |
| UGCGAGCAAUAUUACGCCAU | – | -2.45 ± 0.49 |
| UGCGAGCAAUAUUACGCCCU | -0.783 ± 0.39 | – |
| UGCGAGCAAUAUUACGCUUA | -1.98 ± 0.16 | -1.46 ± 0.22 |
| UGCGAGCAAUAUUACGGCCU | -1.85 ± 0.2 | -1.45 ± 0.24 |
| UGCGAGCAAUAUUACGGCGA | -0.753 ± 0.099 | -0.754 ± 0.11 |

| Sequence | self-splicing fitness (ln) (30 °C) | self-splicing fitness (ln) (37 °C) |
| --- | --- | --- |
| UGCGAGCAAUAUUACGGCUU | -1.76 ± 0.2 | -2.61 ± 0.33 |
| UGCGAGCAAUAUUACGGGGA | -2.81 ± 0.39 | -1.9 ± 0.29 |
| UGCGAGCAAUAUUACGGGGG | -3.34 ± 0.26 | -2.36 ± 0.29 |
| UGCGAGCAAUAUUACGGGUC | -4.21 ± 0.27 | -2.72 ± 0.3 |
| UGCGAGCAAUAUUACGGUUA | -0.797 ± 0.11 | -0.443 ± 0.12 |
| UGCGAGCAAUAUUACGUAAC | -3.17 ± 0.18 | -3.09 ± 0.27 |
| UGCGAGCAAUAUUACGUCAG | -2.69 ± 0.27 | -2.11 ± 0.43 |
| UGCGAGCAAUAUUACGUGAC | -3.73 ± 0.36 | -2.31 ± 0.26 |
| UGCGAGCAAUAUUACGUGUU | -3.58 ± 0.43 | -2.47 ± 0.32 |
| UGCGAGCAAUAUUACGUUGU | -2.79 ± 0.18 | -3.05 ± 0.27 |
| UGCUAGCAAUAUUACGAAUC | -3.2 ± 0.15 | -3.95 ± 0.29 |
| UGCUAGCAAUAUUACGACGU | -1.71 ± 0.22 | -2.36 ± 0.32 |
| UGCUAGCAAUAUUACGAGGG | -2.22 ± 0.15 | -2.43 ± 0.19 |
| UGCUAGCAAUAUUACGCGCC | -1.26 ± 0.2 | -0.477 ± 0.29 |
| UGCUAGCAAUAUUACGCGGG | -3.41 ± 0.28 | -2.38 ± 0.31 |
| UGCUAGCAAUAUUACGGACU | -0.341 ± 0.1 | -0.639 ± 0.088 |
| UGCUAGCAAUAUUACGGCAG | -2.52 ± 0.12 | -1.1 ± 0.13 |
| UGCUAGCAAUAUUACGGUCG | 0.0903 ± 0.098 | 0.362 ± 0.14 |
| UGCUAGCAAUAUUACGUACC | – | 0.784 ± 0.4 |
| UGCUAGCAAUAUUACGUAGA | -2.3 ± 0.18 | -0.929 ± 0.17 |
| UGCUAGCAAUAUUACGUAUA | -2.81 ± 0.24 | -1.1 ± 0.16 |
| UGCUAGCAAUAUUACGUGCU | -2.31 ± 0.16 | -2 ± 0.17 |
| UGCUAGCAAUAUUACGUGGG | -3.58 ± 0.27 | -3.28 ± 0.35 |
| UGCUAGCAAUAUUACGUUAA | -2.54 ± 0.14 | -0.941 ± 0.11 |
